Target: the molecule itself
Assay: SDS-PAGE under reducing and non-reducing conditions

B1: BMP-4 growth factor (GF) from the B2/4 construct (BMP-2 pro-domain and BMP-4 GF sequence) (ligand, human, UniProt P12644 293-408, looked up)
chain: SPKHHSQRARKKNKNCRRHSLYVDFSDVGWNDWIVAPPGYQAFYCHGDCPFPLADHLNSTNHAIVQTLVNSVNSSIPKACCVPTELSAISMLYLDEYDKVVLKNYQEMVVEGCGCR
modifications: two N-linked glycans
Q: For B1, which “stoichiometry N” value is on record?
A: The value was 2.
